Results as given in US20240425885.

How the values were obtained:
Experiment in all cases: cleavage_in_vitro
[1] = system: OMNI-121 (metagenomic, unknown); conditions: TXTL; PAM NNAAAYNN
[2] = system: T1, OMNI-120 (metagenomic, unknown); conditions: TXTL; PAM NRVACNNN
T1 sequence: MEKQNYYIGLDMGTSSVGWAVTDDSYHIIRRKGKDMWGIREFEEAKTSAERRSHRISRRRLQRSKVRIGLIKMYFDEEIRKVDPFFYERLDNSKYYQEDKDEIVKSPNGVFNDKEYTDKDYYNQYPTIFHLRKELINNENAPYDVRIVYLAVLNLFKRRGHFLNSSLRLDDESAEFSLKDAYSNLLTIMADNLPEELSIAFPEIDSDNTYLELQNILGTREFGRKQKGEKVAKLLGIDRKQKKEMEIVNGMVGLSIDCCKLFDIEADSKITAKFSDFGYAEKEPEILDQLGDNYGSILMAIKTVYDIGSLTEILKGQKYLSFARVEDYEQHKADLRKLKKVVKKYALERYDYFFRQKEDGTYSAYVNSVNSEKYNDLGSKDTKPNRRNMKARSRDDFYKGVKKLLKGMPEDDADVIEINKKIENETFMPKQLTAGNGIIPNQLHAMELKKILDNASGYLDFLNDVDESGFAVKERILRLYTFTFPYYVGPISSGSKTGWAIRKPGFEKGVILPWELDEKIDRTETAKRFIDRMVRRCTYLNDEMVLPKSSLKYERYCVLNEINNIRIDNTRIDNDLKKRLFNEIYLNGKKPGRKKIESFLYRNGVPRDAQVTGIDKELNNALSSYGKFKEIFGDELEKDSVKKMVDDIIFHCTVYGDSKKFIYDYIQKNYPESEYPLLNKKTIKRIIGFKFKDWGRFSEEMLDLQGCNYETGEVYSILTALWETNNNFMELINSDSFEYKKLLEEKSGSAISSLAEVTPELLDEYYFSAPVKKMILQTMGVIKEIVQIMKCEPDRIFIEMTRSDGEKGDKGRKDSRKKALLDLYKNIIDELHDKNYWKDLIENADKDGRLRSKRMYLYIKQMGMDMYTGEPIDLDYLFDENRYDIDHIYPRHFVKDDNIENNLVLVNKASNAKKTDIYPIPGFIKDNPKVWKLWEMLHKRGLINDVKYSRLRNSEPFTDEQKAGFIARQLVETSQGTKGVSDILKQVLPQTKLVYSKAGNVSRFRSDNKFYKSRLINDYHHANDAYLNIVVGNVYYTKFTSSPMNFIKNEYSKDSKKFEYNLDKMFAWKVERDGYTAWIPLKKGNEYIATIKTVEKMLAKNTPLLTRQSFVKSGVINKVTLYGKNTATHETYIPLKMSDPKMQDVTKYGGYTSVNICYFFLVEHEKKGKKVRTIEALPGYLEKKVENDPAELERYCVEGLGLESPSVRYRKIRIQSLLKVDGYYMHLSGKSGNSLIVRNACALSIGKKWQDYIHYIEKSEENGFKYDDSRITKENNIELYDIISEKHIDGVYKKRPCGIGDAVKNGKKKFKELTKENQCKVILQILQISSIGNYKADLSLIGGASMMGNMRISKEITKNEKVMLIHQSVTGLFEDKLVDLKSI

[3] = system: T2, OMNI-122 (metagenomic, unknown); conditions: TXTL; PAM NRYTTTYN
T2 sequence: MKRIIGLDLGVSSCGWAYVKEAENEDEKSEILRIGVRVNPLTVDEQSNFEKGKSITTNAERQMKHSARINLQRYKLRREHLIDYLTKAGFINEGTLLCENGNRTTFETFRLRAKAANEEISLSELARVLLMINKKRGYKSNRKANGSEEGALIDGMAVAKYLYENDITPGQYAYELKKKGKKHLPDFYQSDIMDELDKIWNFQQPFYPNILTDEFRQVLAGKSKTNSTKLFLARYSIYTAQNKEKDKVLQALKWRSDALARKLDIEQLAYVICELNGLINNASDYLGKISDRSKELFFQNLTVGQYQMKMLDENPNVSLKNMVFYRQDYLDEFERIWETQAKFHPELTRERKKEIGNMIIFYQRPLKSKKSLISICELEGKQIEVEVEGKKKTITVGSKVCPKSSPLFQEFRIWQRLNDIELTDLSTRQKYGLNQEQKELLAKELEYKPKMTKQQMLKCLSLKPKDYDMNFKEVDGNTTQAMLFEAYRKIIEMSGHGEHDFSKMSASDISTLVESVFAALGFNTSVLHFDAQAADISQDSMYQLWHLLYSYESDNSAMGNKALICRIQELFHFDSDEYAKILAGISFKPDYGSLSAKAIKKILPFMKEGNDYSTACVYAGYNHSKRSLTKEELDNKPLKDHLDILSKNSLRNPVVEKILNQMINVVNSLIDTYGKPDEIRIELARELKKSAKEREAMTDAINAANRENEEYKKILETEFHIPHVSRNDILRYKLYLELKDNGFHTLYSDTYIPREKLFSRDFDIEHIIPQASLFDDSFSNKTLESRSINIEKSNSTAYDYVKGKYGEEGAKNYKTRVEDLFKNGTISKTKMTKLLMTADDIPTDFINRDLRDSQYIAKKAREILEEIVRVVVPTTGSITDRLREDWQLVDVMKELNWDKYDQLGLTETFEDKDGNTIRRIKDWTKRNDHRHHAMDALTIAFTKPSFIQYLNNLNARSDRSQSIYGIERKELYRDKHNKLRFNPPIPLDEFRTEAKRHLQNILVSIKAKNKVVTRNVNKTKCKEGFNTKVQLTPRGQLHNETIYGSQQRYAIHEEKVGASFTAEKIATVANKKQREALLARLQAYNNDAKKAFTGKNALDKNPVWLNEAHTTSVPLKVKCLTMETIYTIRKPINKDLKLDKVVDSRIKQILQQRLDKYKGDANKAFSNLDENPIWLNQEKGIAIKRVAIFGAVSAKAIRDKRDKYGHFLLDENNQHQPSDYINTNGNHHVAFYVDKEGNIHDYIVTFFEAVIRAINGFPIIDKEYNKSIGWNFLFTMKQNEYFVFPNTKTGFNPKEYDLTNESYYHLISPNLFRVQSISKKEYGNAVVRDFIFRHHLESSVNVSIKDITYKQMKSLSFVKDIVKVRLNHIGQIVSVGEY

[4] = system: T3, OMNI-116 (metagenomic, unknown); conditions: TXTL; PAM NRGGACNN
T3 sequence: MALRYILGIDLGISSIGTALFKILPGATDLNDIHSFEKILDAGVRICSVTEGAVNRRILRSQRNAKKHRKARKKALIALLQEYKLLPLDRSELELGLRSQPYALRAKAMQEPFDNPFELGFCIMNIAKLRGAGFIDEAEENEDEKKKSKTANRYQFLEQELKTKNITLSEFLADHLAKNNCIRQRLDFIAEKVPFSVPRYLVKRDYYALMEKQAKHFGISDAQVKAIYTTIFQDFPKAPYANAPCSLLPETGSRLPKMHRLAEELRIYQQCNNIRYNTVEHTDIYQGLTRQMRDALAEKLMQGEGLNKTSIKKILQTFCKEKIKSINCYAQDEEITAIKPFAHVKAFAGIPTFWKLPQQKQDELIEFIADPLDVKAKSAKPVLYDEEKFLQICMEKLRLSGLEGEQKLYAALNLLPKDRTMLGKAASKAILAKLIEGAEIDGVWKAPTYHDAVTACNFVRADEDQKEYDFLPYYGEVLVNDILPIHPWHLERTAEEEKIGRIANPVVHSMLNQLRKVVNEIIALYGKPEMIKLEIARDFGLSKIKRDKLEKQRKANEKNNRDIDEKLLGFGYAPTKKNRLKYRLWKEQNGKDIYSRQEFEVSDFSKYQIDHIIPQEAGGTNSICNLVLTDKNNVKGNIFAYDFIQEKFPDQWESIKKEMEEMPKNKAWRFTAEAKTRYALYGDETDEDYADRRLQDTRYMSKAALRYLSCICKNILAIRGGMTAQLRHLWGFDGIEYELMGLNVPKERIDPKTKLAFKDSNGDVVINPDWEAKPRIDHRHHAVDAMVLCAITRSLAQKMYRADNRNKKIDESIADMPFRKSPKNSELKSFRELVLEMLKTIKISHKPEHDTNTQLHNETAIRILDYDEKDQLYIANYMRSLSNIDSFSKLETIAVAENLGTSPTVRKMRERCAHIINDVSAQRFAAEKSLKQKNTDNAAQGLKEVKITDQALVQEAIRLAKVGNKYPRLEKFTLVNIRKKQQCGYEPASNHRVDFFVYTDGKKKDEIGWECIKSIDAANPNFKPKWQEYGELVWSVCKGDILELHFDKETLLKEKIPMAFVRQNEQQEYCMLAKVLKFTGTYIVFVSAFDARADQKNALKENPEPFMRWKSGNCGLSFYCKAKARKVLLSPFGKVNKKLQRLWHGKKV

[5] = system: T4, OMNI-114 (metagenomic, unknown); conditions: TXTL; PAM NRGGACNN
T4 sequence: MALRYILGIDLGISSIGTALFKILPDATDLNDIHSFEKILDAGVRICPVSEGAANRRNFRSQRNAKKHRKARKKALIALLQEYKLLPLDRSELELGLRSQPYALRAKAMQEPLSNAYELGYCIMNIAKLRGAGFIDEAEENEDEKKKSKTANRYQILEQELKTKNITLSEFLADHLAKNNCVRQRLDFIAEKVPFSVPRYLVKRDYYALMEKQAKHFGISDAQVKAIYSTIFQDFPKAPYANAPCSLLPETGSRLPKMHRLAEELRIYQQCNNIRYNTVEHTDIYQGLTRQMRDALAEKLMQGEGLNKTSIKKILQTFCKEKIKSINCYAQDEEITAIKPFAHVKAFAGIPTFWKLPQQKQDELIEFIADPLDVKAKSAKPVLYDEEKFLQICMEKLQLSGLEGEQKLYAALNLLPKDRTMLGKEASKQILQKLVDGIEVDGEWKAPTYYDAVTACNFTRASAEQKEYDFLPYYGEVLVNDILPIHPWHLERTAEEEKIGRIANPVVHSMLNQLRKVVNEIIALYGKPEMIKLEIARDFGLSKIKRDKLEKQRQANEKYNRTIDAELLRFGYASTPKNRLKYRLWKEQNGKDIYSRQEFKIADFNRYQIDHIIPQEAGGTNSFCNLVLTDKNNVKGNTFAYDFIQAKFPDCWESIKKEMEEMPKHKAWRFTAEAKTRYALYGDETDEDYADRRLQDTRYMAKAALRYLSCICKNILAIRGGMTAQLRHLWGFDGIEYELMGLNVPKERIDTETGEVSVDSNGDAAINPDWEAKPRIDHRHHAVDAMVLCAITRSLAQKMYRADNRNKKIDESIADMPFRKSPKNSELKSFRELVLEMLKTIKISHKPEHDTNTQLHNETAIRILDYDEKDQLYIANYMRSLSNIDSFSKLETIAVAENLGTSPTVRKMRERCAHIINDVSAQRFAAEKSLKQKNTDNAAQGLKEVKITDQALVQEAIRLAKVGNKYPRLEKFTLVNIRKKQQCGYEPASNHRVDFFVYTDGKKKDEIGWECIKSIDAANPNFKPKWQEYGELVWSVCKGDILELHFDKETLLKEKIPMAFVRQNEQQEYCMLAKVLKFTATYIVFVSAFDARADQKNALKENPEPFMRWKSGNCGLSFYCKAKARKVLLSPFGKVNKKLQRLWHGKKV

[6] = system: OMNI-119 (metagenomic, unknown); conditions: TXTL; PAM NNACNNNN
Chain of OMNI-119 (metagenomic, unknown) (chain, as listed by the source): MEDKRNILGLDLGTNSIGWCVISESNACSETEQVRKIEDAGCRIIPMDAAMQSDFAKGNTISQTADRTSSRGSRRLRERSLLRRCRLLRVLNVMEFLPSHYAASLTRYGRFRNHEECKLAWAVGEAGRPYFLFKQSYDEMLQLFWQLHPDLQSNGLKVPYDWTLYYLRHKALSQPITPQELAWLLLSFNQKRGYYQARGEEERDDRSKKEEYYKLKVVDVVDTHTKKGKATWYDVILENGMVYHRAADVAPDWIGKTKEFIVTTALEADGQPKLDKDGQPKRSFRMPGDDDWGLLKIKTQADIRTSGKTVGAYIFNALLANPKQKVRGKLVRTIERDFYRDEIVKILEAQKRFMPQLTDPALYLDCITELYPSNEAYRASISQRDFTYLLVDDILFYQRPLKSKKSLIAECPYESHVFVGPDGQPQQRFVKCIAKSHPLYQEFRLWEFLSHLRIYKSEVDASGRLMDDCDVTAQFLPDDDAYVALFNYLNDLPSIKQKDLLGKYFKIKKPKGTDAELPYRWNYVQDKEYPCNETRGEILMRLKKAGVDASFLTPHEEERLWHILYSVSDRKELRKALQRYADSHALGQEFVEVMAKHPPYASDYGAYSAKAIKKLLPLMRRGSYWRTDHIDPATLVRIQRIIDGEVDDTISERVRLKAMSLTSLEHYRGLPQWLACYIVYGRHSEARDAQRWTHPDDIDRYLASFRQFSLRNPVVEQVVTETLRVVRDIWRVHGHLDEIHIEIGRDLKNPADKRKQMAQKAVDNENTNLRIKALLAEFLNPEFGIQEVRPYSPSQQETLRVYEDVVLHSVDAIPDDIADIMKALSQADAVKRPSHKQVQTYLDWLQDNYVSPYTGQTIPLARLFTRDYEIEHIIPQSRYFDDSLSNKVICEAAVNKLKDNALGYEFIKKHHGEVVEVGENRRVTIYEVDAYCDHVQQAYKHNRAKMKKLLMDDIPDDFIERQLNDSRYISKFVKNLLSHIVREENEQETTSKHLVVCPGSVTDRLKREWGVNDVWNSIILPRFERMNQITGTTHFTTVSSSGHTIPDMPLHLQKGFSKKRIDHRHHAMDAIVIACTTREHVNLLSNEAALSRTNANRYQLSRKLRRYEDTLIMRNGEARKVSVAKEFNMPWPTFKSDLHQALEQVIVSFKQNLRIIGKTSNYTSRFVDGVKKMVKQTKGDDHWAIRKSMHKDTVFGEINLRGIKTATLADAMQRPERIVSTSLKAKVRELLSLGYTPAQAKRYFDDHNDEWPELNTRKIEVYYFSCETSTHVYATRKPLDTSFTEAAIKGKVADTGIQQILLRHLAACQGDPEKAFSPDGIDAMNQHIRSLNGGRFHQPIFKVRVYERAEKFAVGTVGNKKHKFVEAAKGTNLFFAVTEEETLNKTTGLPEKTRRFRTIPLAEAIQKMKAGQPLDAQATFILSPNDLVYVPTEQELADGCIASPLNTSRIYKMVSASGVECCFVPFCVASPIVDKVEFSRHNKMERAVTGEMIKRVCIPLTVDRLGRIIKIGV

Chain of OMNI-121 (metagenomic, unknown) (chain, as listed by the source): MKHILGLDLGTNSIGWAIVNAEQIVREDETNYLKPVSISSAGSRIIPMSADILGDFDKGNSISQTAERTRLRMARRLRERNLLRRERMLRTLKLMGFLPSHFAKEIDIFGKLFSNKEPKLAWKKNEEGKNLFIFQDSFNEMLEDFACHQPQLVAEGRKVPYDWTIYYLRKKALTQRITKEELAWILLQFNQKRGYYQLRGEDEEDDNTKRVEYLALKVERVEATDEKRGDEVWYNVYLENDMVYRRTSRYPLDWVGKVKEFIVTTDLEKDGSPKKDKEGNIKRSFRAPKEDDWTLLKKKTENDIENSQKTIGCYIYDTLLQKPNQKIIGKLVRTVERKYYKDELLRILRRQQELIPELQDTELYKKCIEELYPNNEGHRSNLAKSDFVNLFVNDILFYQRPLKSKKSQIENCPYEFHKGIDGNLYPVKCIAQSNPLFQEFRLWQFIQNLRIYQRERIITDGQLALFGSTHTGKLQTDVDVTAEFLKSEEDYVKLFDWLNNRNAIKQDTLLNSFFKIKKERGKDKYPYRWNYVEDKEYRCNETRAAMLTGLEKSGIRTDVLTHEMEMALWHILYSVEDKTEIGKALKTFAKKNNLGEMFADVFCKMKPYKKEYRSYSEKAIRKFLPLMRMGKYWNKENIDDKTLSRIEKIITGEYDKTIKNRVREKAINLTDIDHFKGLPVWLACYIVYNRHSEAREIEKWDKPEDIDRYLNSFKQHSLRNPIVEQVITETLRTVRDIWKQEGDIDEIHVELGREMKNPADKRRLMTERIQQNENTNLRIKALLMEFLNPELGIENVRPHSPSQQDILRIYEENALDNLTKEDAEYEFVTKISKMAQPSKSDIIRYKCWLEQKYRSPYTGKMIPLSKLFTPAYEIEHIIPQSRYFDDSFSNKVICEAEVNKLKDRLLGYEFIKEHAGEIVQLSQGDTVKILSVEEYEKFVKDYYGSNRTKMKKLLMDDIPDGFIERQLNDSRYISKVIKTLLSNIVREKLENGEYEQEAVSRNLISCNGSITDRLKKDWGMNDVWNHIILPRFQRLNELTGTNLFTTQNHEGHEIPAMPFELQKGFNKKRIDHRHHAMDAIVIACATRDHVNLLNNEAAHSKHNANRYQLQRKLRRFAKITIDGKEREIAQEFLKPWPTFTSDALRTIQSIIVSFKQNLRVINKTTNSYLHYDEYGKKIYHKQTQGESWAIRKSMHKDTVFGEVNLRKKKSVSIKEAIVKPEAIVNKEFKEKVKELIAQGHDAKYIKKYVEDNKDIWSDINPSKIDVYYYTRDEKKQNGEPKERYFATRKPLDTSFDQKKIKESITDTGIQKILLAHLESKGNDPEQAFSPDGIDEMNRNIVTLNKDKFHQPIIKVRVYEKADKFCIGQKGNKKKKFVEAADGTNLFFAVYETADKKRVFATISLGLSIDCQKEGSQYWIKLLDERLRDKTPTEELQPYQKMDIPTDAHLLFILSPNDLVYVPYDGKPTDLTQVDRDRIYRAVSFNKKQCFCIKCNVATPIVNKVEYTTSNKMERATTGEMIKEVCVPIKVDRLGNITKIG

Q: With “GGAAGAGCAGAGCCUUGGUCUCGUUGUGAAUUGCUUGAAAUUCUUGAAAGAAUUUCAGCAAUUCACAAUAAGGAUUAUUCCGUUGUGAAAACAUUCAGGUUCCUGCCCUCGUCCUUUAACGGGGGCUUUUUU / GGAAGAGCAGAGCCTTGGTCTCNNNNNNNN / NNNNNNNNGAGACCAAGGCTCTGCTCTTCC [T2 sgRNA 24 V1 ; T2 protospacer + 8N PAM library (pbPOS T2)]” as the sequence, how does the activity (1-depletion score) [1] read?
A: 0.91

Q: With “GGAAGAGCAGAGCCUUGGUCUCGUUUGAGAGCCUUGUUAGAAAUAACAAGGCGAGUGCAAAUAAGGUUUAACCGAAUUCACCGUUUAUGGACCGCAUUGUGCGGAUUUUAAAAAAGACUUUCAAAGUCUUUUUU / GGAAGAGCAGAGCCTTGGTCTCNNNNNNNN / NNNNNNNNGAGACCAAGGCTCTGCTCTTCC [T2 sgRNA 23 V1 ; T2 protospacer + 8N PAM library (pbPOS T2)]” as the sequence, how does the activity (1-depletion score) [2] read?
A: 0.95

Q: For “GGAAGAGCAGAGCCUUGGUCUCGUUGUGAAUUGCUUUCGAAAGAAGCAAUUCACAAUAAGGAUUAUUCCGUUGUGAAAACAUUUAAGAGAGUCCUUCGUCCUUCGGAGGAUUCUUUUUU / GGAAGAGCAGAGCCTTGGTCTCNNNNNNNN / NNNNNNNNGAGACCAAGGCTCTGCTCTTCC [T2 sgRNA 25 V1 ; T2 protospacer + 8N PAM library (pbPOS T2)]”, which activity (1-depletion score) [3] is on record?
A: 0.84

Q: For “GGAAGAGCAGAGCCUUGGUCUCGUUUUACUUGCCUGUCGAAAGAUAGGCAAUAAAACAAAUAUAAUUUCUUUUGAAAUUAUAUGUAAAAUGUUUAAAGCCCUCCUUUUCAGGGGGGCUUUUUU / GGAAGAGCAGAGCCTTGGTCTCNNNNNNNN / NNNNNNNNGAGACCAAGGCTCTGCTCTTCC [T2 sgRNA 20 V1 ; T2 protospacer + 8N PAM library (pbPOS T2)]”, which activity (1-depletion score) [4] is on record?
A: 0.96

Q: What about the activity (1-depletion score) [5] of the same sequence?
A: 0.96

Q: For “GGAAGAGCAGAGCCUUGGUCUCGUUGUGAUUUGCUGAGGAAACUAGCAAAUCACAAUAAGGAUUAUUCCGUUGUGAACACAUUAGGUCCCAACCCAUCGUCCUUUAACGGUGGGUUAUUUUUU / GGAAGAGCAGAGCCTTGGTCTCNNNNNNNN / NNNNNNNNGAGACCAAGGCTCTGCTCTTCC [T2 sgRNA 22 V1 ; T2 protospacer + 8N PAM library (pbPOS T2)]”, which activity (1-depletion score) [6] is on record?
A: 0.97
